Measurements from PMC11261447.

Target: HA-OGT-D4 (D-box mutant R351A/L354A) (UniProt O15294)

Flag-CDC20 (from UniProt Q12834 1-499) (natural protein)
decrease in ubiquitination level of HA-OGT-D4 against HA-OGT-WT in 293T cells transfected with Myc-Ub and Flag-CDC20 (anti-HA precipitates blotted with anti-Myc): 50%
